For test [1], the target named is T1, human CCL17 (human, UniProt Q92583 24-94).
T1 sequence: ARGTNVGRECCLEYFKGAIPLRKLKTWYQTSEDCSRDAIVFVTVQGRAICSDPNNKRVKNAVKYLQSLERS
Kind of test: cell-based or functional assay.

The target of test [2] is T2, cyno CCL17 (Macaca fascicularis (cyno), UniProt Q8HYP9 24-94 (rhesus entry)).
T2 sequence: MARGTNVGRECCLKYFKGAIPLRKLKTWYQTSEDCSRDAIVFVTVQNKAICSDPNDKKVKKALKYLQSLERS
Kind of test: cell-based or functional assay.

For test [3], the target named is T1, human CCL17. Kind of test: cell-based or functional assay. This is another data set of the same source.
Test [4] addresses T2, cyno CCL17. The experiment in a line: cell-based or functional assay. This is another data set of the same source.
Test [5] concerns the target T1, human CCL17. The experiment in a line: solution equilibrium affinity (MSD-SEA), TBST, 48 h at 4 °C. As to the method: (§1) Equal volumes of the anti-hCCL17 mAbs at 40 pM or 200 pM were added to each chemokine dilution to obtain mixtures containing the serial dilution of chemokines starting at a final concentration of […] and a constant concentration (20 pM or 100 pM) of anti-CCL17 antibody. The mixtures were prepared in duplicate and incubated at 4° C. for 48 hours to reach equilibrium. The free antibody was detected using a SECTOR Imager 6000 (Meso Scale Discovery) instrument. The resulting binding curves were fitted to obtain the dissociation equilibrium constant (KD) using the GraphPad Prism software (v 5.01) using a 1:1 binding model to perform nonlinear least-square regression analysis of the data.

For test [6], the target named is T2, cyno CCL17. The test is described as above. As to the method: as §1
Test [7] concerns the target T1, human CCL17. Kind of test: MSD-SEA; affinity for human CCL17 against that for cyno CCL17. As to the method:
as §1

The target of test [8] is T1, human CCL17. The experiment in a line: not stated in the legend (affinities by MSD-SEA in Examples 3 and 4).
The target of test [9] is T2, cyno CCL17. Kind of test: ELISA, Fab captured by anti-kappa, biotinylated chemokine, streptavidin:HRP. As to the method: (§2) Briefly, Maxisorp 96 well plates were coated with 1 μg/ml Goat anti-human Kappa (Southern Biotech). Semi-purified Fab was added to each plate. […] Proteins bound to the captured Fabs were detected using Streptavidin:HRP.
A further test deals with T3, cyno CCL22 (cyno, UniProt O00626 25-93 (human entry), limits assumed).
T3 construct: Biotinylated in the Fab ELISA; also called cCCL22; CCCL22
T3 chain: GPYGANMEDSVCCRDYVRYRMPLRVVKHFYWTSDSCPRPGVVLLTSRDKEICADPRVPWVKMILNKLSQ
The test is described as above. The protocol:
as §2

The target in test [10] is T1, human CCL17. Kind of test: ranking ELISA of Fab variants with bt-human CCL17. (ELISA stands for enzyme-linked immunosorbent assay.)

The source of these data is US20220348647A1 (published 2022).

Some results are limits rather than exact numbers.

A word on the Kd: it is the equilibrium constant for the complex coming apart. Low readings indicate a tighter complex, high ones a looser complex.

B1: C17B234 (antibody, V domains shown)
VH: EVQLVQSGAEVKKPGESLKISCKGSGYSFTSYWIGWVRQMPGKGLEWMGIIDPSDSDTRYSPSFQGQVTISADKSISTAYLQWSSLKASDTAMYYCARVGPADVWDSFDYWGQGTLVTVSS
VL: DIVMTQSPDSLAVSLGERATINCKSSQSVLLSFDNINKLAWYQQKPGQPPKLLIYNASTRESGVPDRFSGSGSGTDFTLTISSLQAEDVAVYYCQQFYSVPSTFGQGTKVEIK
notes: Full IgG1, kappa
B1: the “IC50 (nM), calcium flux assay in CCRF-CEM cells, 10 ng/ml human CCL17” value with human CCL17 [1] is 0.421 nM. In the test with cyno CCL17 [2], the “IC50 (nM), calcium flux assay in CCRF-CEM cells, 5 ng/ml cyno CCL17” value came to 0.369 nM. The “IC50 (nM), β-arrestin assay, Hek293 cells co-expressing CCR4, 20 nM CCL17” value was determined as 8.42 nM with human CCL17 [3] and 5.39 nM in the test with cyno CCL17 [4]. Besides, the Kd in the test with human CCL17 [5] was 0.002 nM; with cyno CCL17 [6], 0.23 nM; in the test with human CCL17 [8], not above 100 nM. Moreover, the “Fold binding human/cyno CCL17” value with human CCL17 [7] was found to be 115 fold.

B2: F24 (Fab, V domains shown)
VH: EVQLVQSGAEVKKPGESLKISCKGSGYSFTSYWIGWVRQMPGKGLEWMGIIDPSDSDTRYSPSFQGQVTISADKSISTAYLQWSSLKASDTAMYYCARVGPADVWDSFDYWGQGTLVTVSS
VL: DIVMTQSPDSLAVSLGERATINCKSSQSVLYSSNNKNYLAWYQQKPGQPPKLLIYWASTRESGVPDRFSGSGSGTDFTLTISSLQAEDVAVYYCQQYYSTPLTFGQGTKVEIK
notes: Semi-purified Fab with a His tag at the C-terminus of the heavy chain; also called C17F24
As to B2, the binding result in the test with cyno CCL17 [9] is listed as “binds”; with cyno CCL22, “no binding”.

B3: C17F319 variant W→R at HCDR3 position 100a (Kabat) (Fab, V domains shown)
VH: EVQLVQSGAEVKKPGESLKISCKGSGYSFTSYWIGWVRQMPGKGLEWMGIIDPSDSDTRYSPSFQGQVTISADKSISTAYLQWSSLKASDTAMYYCARVGPADVRDSFDYWGQGTLVTVSS
VL: DIVMTQSPDSLAVSLGERATINCKSSQSVLLSPWNSNQLAWYQQKPGQPPKLLIYGASTRESGVPDRFSGSGSGTDFTLTISSLQAEDVAVYYCQQYYLIPSTFGQGTKVEIK
Turning to B3, the binding result with human CCL17 [10] was “binds”.

B4: C17B236 (antibody, V domains shown)
VH: EVQLVQSGAEVKKPGESLKISCKGSGYSFTSYWIGWVRQMPGKGLEWMGIIDPSDSDTRYSPSFQGQVTISADKSISTAYLQWSSLKASDTAMYYCARVGPADVWDSFDYWGQGTLVTVSS
VL: DIVMTQSPDSLAVSLGERATINCKSSQSVLLSPWNSNQLAWYQQKPGQPPKLLIYGASTRESGVPDRFSGSGSGTDFTLTISSLQAEDVAVYYCQQYYLIPSTFGQGTKVEIK
notes: Full IgG1, kappa
On to B4, for which, in the test with human CCL17 [1], the “IC50 (nM), calcium flux assay in CCRF-CEM cells, 10 ng/ml human CCL17” value stood at 0.385 nM. Also, the “IC50 (nM), calcium flux assay in CCRF-CEM cells, 5 ng/ml cyno CCL17” value with cyno CCL17 [2] stood at 0.349 nM. The results for the “IC50 (nM), β-arrestin assay, Hek293 cells co-expressing CCR4, 20 nM CCL17” value in the test with human CCL17 [3] and with cyno CCL17 [4] were 6.98 nM and 9.5 nM, respectively. Moreover, the Kd with human CCL17 [5] was 0.039 nM; with cyno CCL17 [6] it was 0.297 nM; with human CCL17 [8] it was not above 100 nM. Moreover, the “Fold binding human/cyno CCL17” value with human CCL17 [7] was 7.6 fold.

B5: C17F319 variant W→T at HCDR3 position 100a (Kabat) (Fab, V domains shown)
VH: EVQLVQSGAEVKKPGESLKISCKGSGYSFTSYWIGWVRQMPGKGLEWMGIIDPSDSDTRYSPSFQGQVTISADKSISTAYLQWSSLKASDTAMYYCARVGPADVTDSFDYWGQGTLVTVSS
VL: DIVMTQSPDSLAVSLGERATINCKSSQSVLLSPWNSNQLAWYQQKPGQPPKLLIYGASTRESGVPDRFSGSGSGTDFTLTISSLQAEDVAVYYCQQYYLIPSTFGQGTKVEIK
Consider B5, for which, in the test with human CCL17 [10], the binding result is listed as “binds”.
